Data as given in the nanobody polyreactivity screen of Harvey et al. (2022).

Test: yeast display, Sf9 membrane polyspecificity reagent, FACS + sequencing; frameworks hold sequencing errors
Outline: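 Polyreactivity labels are assigned by the sorting gate from which each nanobody was recovered. The gates were low and high (top ~1%), set on anti-HA fluorescence for expression and streptavidin fluorescence for reagent binding. Before sorting, galactose-induced (36–48 hours) yeast display cells were stained for 1 hour at 4 °C with 10% biotinylated, detergent-solubilized Sf9 membrane reagent.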
With “QVQLVESGGGLVQAGGRLRISCAASGRIFTYNTLGWSRQEPGKERELVAAIRTGGSTNYADSVKGRFTISRDNAKITVNLQMNSLKPEDTAVSYCNTVRHSTSDYWYDFWGQGTQVTLSS” the “polyreactivity (PSR sort gate)” value was “low polyreactivity”. For “QVQLVESGGGLVQAGGRLRISCAASGRTFGHYAMGWYRQAPGKQRELVAAINRSGGITYYADSVRGRFTISRDNAKNTVYLQMNSLKPEDPAVDYCAAASPGRYDYWGQGTQETVSS”, the “polyreactivity (PSR sort gate)” value was “high polyreactivity”. In the case of “QVQLVESGGGLVQAGGRLRISCAASGSIFGTYTMGWYRLAPGEERELVAAITSDGRTYYADSVKGRFTISRDNAKNTVYLQMNSLKPEDTAVYYCAADSSGYYWFNYWGQGTQVTVSS”, the “polyreactivity (PSR sort gate)” value is reported as “low polyreactivity”. In the case of “QVQLVESGGGLVQAGGRLRLICAASGRIFYSYAMGWYRQAPGKERELVAAISFSVGSTYYADSVKGRFTISRDNAKNTVYLQMNSLKPEDTAVYYCAASLGFPGYEYWGQGTQVTVSS”, the “polyreactivity (PSR sort gate)” value is reported as “low polyreactivity”. In the case of “QVQLVESGGGLVQAGGRLRLICDASGRIFYRYAIGWYRQAPGKERELVAVITSSGGRTYYADSVKGRFTISRDTAKNTVYLPMNSLKPEDTAVYYCTAYVRRIVRSYYWGQGTQVTVSS”, the “polyreactivity (PSR sort gate)” value is reported as “high polyreactivity”. In the case of “QVQLVESGGGLVQAGGRLRLISAASGSIFYYNAMGWYRQAPGKERELVAAISWSADSTYYADSVKGRFTISRDNAKNTVYLQMNSLKPEDSAAYYCNTDLVPWTEYWYDYWGQGTQVTVSS”, the “polyreactivity (PSR sort gate)” value is reported as “low polyreactivity”. For “QVQLVESGGGLVQAGGRLRLRCAASGFTFRYNAMGCNRQAPGKERELVATISSGASTYYADSVKGRFTISRDNAKNTVYFQMNSLIPVDSAVYYCAADDLGLWFYSGVDDYYYCGQGTQVTVSS”, the “polyreactivity (PSR sort gate)” value was “low polyreactivity”. In the case of “QVQLVESGGGLVQAGGRLRLRCAASGSTFSYYAMGWYRQAPGKERELVADISSGGTTNYADSVKGRFTISRDNAKNTVYLQMNSLKPEDTSVYYCNRRYSYYDGFDYWGQGTQVTVSS”, the “polyreactivity (PSR sort gate)” value is reported as “low polyreactivity”. With “QVQLVESGGGLVQAGGRLRLSCAAAGSTFDGNAMGWYRQAPGKERELVADIDSIGGSTYYADSVKGRFTISRDNAKNTVYLQMNSLKPEDTAVYYCADRRFDTALVLYDYWGQGTQVTVSS” the “polyreactivity (PSR sort gate)” value was “low polyreactivity”. For “QVQLVESGGGLVQAGGRLRLSCAASAFIFVTYAMGCYRQAPGKERELVAAITNSGGTTYYADSVKGRFTISRDNAKNTVYLQMNSLKPEDTAVYYCNTEDFFNVPEMDSWGQGTQVTVSS”, the “polyreactivity (PSR sort gate)” value was “low polyreactivity”. In the case of “QVQLVESGGGLVQAGGRLRLSCAASGFIFKGYAKGWYRQAPGKERELVAAISYSGGNTYYADSVKGRFTISRDNAKNTVYLQMNSLKPEDTAVYYCDVRKRKVLGMYYWGQGTQVTVSS”, the “polyreactivity (PSR sort gate)” value is reported as “high polyreactivity”. For “QVQLVESGGGLVQAGGRLRLSCAASGFIFPHYAMGWYRQAPGKDRELVAAITWSGSSTYYADSVKGRFTISRDNAKNTVYLQMNSLKPEDTAVYYCYADYRLWPTSRYRYGYWGQGTQVTVTS”, the “polyreactivity (PSR sort gate)” value was “high polyreactivity”. With “QVQLVESGGGLVQAGGRLRLSCAASGFIFSYYAMAWYIQAPGKERELVAAISSAGSTYYADSVKGRFTISRDNAKNTVYLQMNSLKPEDTAVYYCAAAIWYIKLYFVRRTEHGYWGQGTQVTVSS” the “polyreactivity (PSR sort gate)” value was “low polyreactivity”. For “QVQLVESGGGLVQAGGRLRLSCAASGFILATNAMGWYRQAPGKERELVAAISYSGGSTNYADSVKGRFTISRDNAKNTVYLQMNSLKPEDTAVYYCNAGGTVIWAWYGPVYSWGQGTQVTVSS”, the “polyreactivity (PSR sort gate)” value was “low polyreactivity”. In the case of “QVQLVESGGGLVQAGGRLRLSCAASGFTFAYYAMGWYRQAPGKERELVAAIRWSGTRTYYADSVKGRFTISRDHAKNTVYLQMNSLKPEDTAVYYCAKGIWYGTSGYYYWGQGTQVTVSS”, the “polyreactivity (PSR sort gate)” value is reported as “high polyreactivity”. For “QVQLVESGGGLVQAGGRLRLSCAASGFTFLGSAMGWYRQAPGKERELVAAISSSGGSTYYADSVKGRFTISRDNAKNTVYLQMNSLKPEDTAVYYCAAYVAVPPSDYDYWGQGTQVTVSS”, the “polyreactivity (PSR sort gate)” value was “high polyreactivity”. For “QVQLVESGGGLVQAGGRLRLSCAASGFTFSVYPMGWYIQAPGKERELVAAISWSGGSTYYADSVKGRFTISRDNAKNTVYVQMNSLKPEDTAVYYCNAYFSYKYRYPEDYWGQGTQVTVSS”, the “polyreactivity (PSR sort gate)” value was “high polyreactivity”. With “QVQLVESGGGLVQAGGRLRLSCAASGGIFVSYAMGWYRQSPGKEREMVAAITSGGGTSYADSVKGRFTISRDNAKNTVYLQMNSLKPEDTEVYYCAARFMWSVFGRKGGYWGQGTQVTVSS” the “polyreactivity (PSR sort gate)” value was “low polyreactivity”. For “QVQLVESGGGLVQAGGRLRLSCAASGGLLDIYVMGWYRQAPGKERELVAAITTRGGSTFYADSVKGRFTISRDNAKNTVYLQMNSLIPEDTAVYYCNKRLLVSRSSAQAYGYWGQGTQVTVSS”, the “polyreactivity (PSR sort gate)” value was “high polyreactivity”. With “QVQLVESGGGLVQAGGRLRLSCAASGGTFSKNAIGWYRQAPGKEREFVAAISSTGGDTTYYADSVKGRFTISRDNAKNTVYLQMNSVKPEDTAFYYCNSDYIFWPWYDYWGQGTQVTVSS” the “polyreactivity (PSR sort gate)” value was “low polyreactivity”. In the case of “QVQLVESGGGLVQAGGRLRLSCAASGGWYRQAPGKERELVAAISWRDSSTYYADSVKGRFTISRDNAKNTVYLQMNSLKPEDTAVYYCAVRAYPWPEYYYWGQGTQVTVSS”, the “polyreactivity (PSR sort gate)” value is reported as “low polyreactivity”. In the case of “QVQLVESGGGLVQAGGRLRLSCAASGIIFSYYAMGWYRQAPGKERELVAAISWGGGSTYYADSVKGRFTISRDYAKNTVYLQMNSLKPEDTAVYYCAADYFDFFTGYEMGYWGQGTKVTVSS”, the “polyreactivity (PSR sort gate)” value is reported as “high polyreactivity”. With “QVQLVESGGGLVQAGGRLRLSCAASGIIFYGYAMGWYRQAPGKERELVAAITSYDGSTYYADSVKGRFTISRDNEKNTVYLQMNILKPEDTAFYYCAADYSTYEGWYWFDYWGQGTQVTVSS” the “polyreactivity (PSR sort gate)” value was “high polyreactivity”. For “QVQLVESGGGLVQAGGRLRLSCAASGIILGRYAMGWDRQAPGKERELVAAISIRGTRTYYADSVKGRFTISRDNAKNTVYLQLNSLKPEDTAVSYCAAKTVLWGQGTQVTVSS”, the “polyreactivity (PSR sort gate)” value was “high polyreactivity”. For “QVQLVESGGGLVQAGGRLRLSCAASGIISSAYAIGWYRQAPGKERELVAAISSGGSTKYADSVKGRFTISRDNAKNTVYLQMNSLKPEDTAVYYCAARTRYPYKVFGYWGQGTQVTVSS”, the “polyreactivity (PSR sort gate)” value was “high polyreactivity”. With “QVQLVESGGGLVQAGGRLRLSCAASGITFTVFAMGWYRQAPGKERELVAAISQSGGSTYYADSVKGRFTISRDNAKNTVYLQMNILNPEDTAVYYCAKTLPSNGHYDYWGQGTQVTVSS” the “polyreactivity (PSR sort gate)” value was “low polyreactivity”. In the case of “QVQLVESGGGLVQAGGRLRLSCAASGITIYGYAMGWYRQAPGKEREFVAAISYSGASTYYADSVKGRFTISRDNAKNTVYLQMNSLKPEDTAVYYCAARVRRSLYGYWGIGTQVTVSS”, the “polyreactivity (PSR sort gate)” value is reported as “high polyreactivity”. For “QVQLVESGGGLVQAGGRLRLSCAASGLTFKRYAMGWYRQAPGKERELVASITGNGGSTYYADSVKGRFTISRDNAKNTVYLQINSLKPEDTAVYYCNARRYVRTSQQPLYFYWGQGTQVTVSS”, the “polyreactivity (PSR sort gate)” value was “high polyreactivity”. For “QVQLVESGGGLVQAGGRLRLSCAASGLTFYLSAMGWYRQAPGKERELVAGISRSGGSTYYADAVKGRFTISRDYAKNTVYLLMNSLKPEDTAVSYCNKASAVFEFYYWGQGTQVTVSS”, the “polyreactivity (PSR sort gate)” value was “high polyreactivity”. With “QVQLVESGGGLVQAGGRLRLSCAASGRIFAANVMGSYRQAPGKERELVAAISWNGGSTYYADSEKGRFTISRDNAKKSVYLQLNSLKPEDTAVYYCAVRGSYRVWYDYWGQGTQVTVSS” the “polyreactivity (PSR sort gate)” value was “high polyreactivity”. For “QVQLVESGGGLVQAGGRLRLSCAASGRIFPDNTMGWYRQAPGKERELVAVITYSGGSTYYADSVKGRFTISRDNAKNTVYLQMNSLKPEDTAVYYCAARDYYIWFAEVDYWGQGTQVTVSS”, the “polyreactivity (PSR sort gate)” value was “low polyreactivity”. For “QVQLVESGGGLVQAGGRLRLSCAASGRIFSAYAMGWYRQAPGKERELVAAISRSGGRTYYADSVKGRFTISRDNAKNTVYLQMNSLKPEDTAVYYCAAARFAIVRGDYWGQGTQVTVSS”, the “polyreactivity (PSR sort gate)” value was “high polyreactivity”. For “QVQLVESGGGLVQAGGRLRLSCAASGRIFSKNAMGWYRQAPGKERELVAVISARGGNTYYADSVKGRFTISRDNAKNTVYLQMNSLKPEDTAVYYCNTPRPYEITTREYYYWGQGTQVTVSS”, the “polyreactivity (PSR sort gate)” value was “high polyreactivity”. With “QVQLVESGGGLVQAGGRLRLSCAASGRIFVAYVMGWYRQAPGKERELVAAITRGVRTYYADSVKGRFTISRDNAKNTVYLQMNSLKPEDTAVYYCAARGISAFSQDYEYYYWGQGTQVTVSS” the “polyreactivity (PSR sort gate)” value was “high polyreactivity”. In the case of “QVQLVESGGGLVQAGGRLRLSCAASGRIFVRYVMGWYRQAPGKERELVAAISGGGSSTYYADSVKGRFTISRDNAKNTVYLQMNSLKPVDTAVYYCAAKGTRQPRFDFWGQGTQVTVSS”, the “polyreactivity (PSR sort gate)” value is reported as “high polyreactivity”. For “QVQLVESGGGLVQAGGRLRLSCAASGRIFVVYAMGWSRQAPGKERELVAAISKRGGSTYYADSVKGRFTISRDNAKYTVYLQMNTLKPEDTAVYYCAAGRYKSDLMDYWGQGTQVTVSS”, the “polyreactivity (PSR sort gate)” value was “high polyreactivity”. In the case of “QVQLVESGGGLVQAGGRLRLSCAASGRIFYLNAMGWYRQAPGKERELVAAINTSGDSSYYADSVKGRFTISRDNAKNTVYLQMNSLKPEDTAVYYCAAYVIGPDQFIYDYWGQGTQVTVSS”, the “polyreactivity (PSR sort gate)” value is reported as “low polyreactivity”. For “QVQLVESGGGLVQAGGRLRLSCAASGRIFYYNAMGWYRQAPGKERELVATITGSGGSTYYADSVKGRFTISRDIAKNTVYLQMNSLKPEDTAVYYCAKRIYRYQYRPENYWGQGTQVTVSS”, the “polyreactivity (PSR sort gate)” value was “low polyreactivity”. For “QVQLVESGGGLVQAGGRLRLSCAASGRSYPPYAMGWYREAPGKERELLAAISYSGGSTYYADSVTGRFTISRDNAKNPVYLQMNSLKPEDTSVFYCNKDISREVGIRMDDWGQGTQVTVSS”, the “polyreactivity (PSR sort gate)” value was “high polyreactivity”. With “QVQLVESGGGLVQAGGRLRLSCAASGRTFGVYVMGWYRQAPGKERELVAAISSSGGLTYYADSVKGRFTISRDNAKNTVYLQMNSMKPEDTAVYYCNAVRRREERDGPPNPMDYWGQGTQVTVSS” the “polyreactivity (PSR sort gate)” value was “high polyreactivity”. For “QVQLVESGGGLVQAGGRLRLSCAASGRTFNYYAMGWYRQAPGKERELVATISYNGASTYYADSVKGRFTISRDNAKNTVYLQMNSLKPEDTAVYYCAAGYLWRGRLGNWGQGTQVTVSS”, the “polyreactivity (PSR sort gate)” value was “high polyreactivity”. For “QVQLVESGGGLVQAGGRLRLSCAASGRTFPLYAMGWYRQAPGKERELVAAISSSGGNTYYADSVKGRFTISRDNAKNTVYLQMNSLIPEETAVYYCNADVSTNSDRLQLDYWGQGTQVTVSS”, the “polyreactivity (PSR sort gate)” value was “low polyreactivity”. For “QVQLVESGGGLVQAGGRLRLSCAASGRTFTYFAMGWYRKAPGKERELVAAISWDDDSTYYADSVKGRFTISRDYAKNTVYLQMNSLKPEDTAVYYCAASYYRQSGEYDYWGQGTQVTVSS”, the “polyreactivity (PSR sort gate)” value was “low polyreactivity”.
